Experimental data reported in publication PMC10502012, “Molecular basis of TASL recruitment by the peptide/histidine transporter 1, PHT1” (Nature Communications, 2023).

Assays:
[1] = biological target: chicken PHT1 (purified, wild type) (chicken)
[2] = biological target: T1, chicken PHT1 L12A/L13A (purified, deglycosylated, cryo-EM sample) (Gallus gallus (chicken), UniProt A0A8V0ZFZ8;A0A8V0Z8V0, point mutant); assay: cryo-EM structure; PHT1 L12A/L13A with two-fold molar excess of Sb27, EndoH, gel filtration; 10 mM MOPS pH 7.0, 100 mM NaCl, 0.01% DDM/0.002% CHS; details: both partners purified
T1 construct: chicken PHT1 (SLC15A4), full length, 581 residues, with L12A and L13A; Residues 19-569 modelled in the map; also called plasma membrane mutant of PHT1; source: Expi293F GnT1-, transiently transfected, Strep-Tactin purified, treated with EndoH, gel filtration

[3] = biological target: T1, chicken PHT1 L12A/L13A (purified, …); assay: thermal shift (nanoDSF); PHT1 alone against PHT1-Sb27 at 0.4 mg/mL in 50 mM HEPES pH 7.5, 100 mM NaCl, 0.02% DDM/0.004% CHS; details: both partners purified

chicken PHT1 (purified, wild type) (chicken), sequence (chain, as listed by the source): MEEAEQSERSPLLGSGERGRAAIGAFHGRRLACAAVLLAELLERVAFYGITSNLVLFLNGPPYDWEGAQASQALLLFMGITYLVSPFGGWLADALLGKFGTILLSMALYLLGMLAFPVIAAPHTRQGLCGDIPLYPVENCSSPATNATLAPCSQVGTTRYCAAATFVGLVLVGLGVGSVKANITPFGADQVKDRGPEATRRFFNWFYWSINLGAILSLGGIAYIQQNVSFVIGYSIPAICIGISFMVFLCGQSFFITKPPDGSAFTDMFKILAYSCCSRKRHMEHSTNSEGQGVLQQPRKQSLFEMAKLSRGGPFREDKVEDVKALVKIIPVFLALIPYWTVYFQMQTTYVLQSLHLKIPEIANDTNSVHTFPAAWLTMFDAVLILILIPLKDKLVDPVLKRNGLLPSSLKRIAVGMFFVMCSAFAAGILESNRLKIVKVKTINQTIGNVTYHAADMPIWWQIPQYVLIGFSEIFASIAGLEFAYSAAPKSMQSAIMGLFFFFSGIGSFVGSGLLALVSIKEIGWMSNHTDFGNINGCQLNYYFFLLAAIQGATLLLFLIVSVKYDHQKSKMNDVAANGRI

Row | Binder | binding result [1] | stoichiometry N [2] | increase of the melting temperature of PHT1 [3]
1 | 155 (VHH) VHH: QVQLVESGGGLVQAGGSLRLSCAAGGFPVKTSWMRWYRQAPGKEREWVAAINSTGDWTEYADSVKGRFTISRDNAKNTVYLQMNSLKPEDTAVYYCNVKDYGVQTYYYDYWGQGTQVTVSA | binds | – | –
2 | sybody 27 (VHH, synthetic nanobody selected from the sybody libraries; Expressed from the pSBinit plasmid; also called Sb27; Sb27a; source: E. coli MC1061 F-, periplasm, purified (Ni-NTA, gel filtration)) VHH: QVQLVESGGGSVQAGGSLRLSCAASGDIETIWYLGWFRQAPGKEREGVAALSTVTGSTYYADSVKGRFTVSLDNAKNTVYLQMNSLKPEDTALYYCAAAYTGWMAPLWQWVYSYWGQGTQVTVSA | – | 2 | 6 degrees
